Assay results taken from US20250066450A1 (LASK PHARMA, published 2025).

Molecular target: T1, BMP10 (UniProt O95393 317-424)
T1 sequence (looked up): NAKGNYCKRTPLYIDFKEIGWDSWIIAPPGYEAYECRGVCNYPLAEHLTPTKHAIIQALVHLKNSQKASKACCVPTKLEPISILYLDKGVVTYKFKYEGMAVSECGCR
Assay: Biacore (SPR); Fc fusion captured with anti-Fc antibody, ligand injected (FIG. 3B)
Method: A Biacore™-based binding assay was used to compare ligand binding selectivity of the ALK6 variant-Fc dimeric complex (e.g., SEQ ID NO: 46) described above with that of ALK6 wt-Fc complexes (SEQ ID NO: 49). The Fc dimeric complexes were independently captured onto the system using an anti-Fe antibody. Ligands were injected and allowed to flow over the captured receptor protein.

B1: ALK6-Fc fusion polypeptide (SEQ ID NO: 89) (Fc fusion)
chain: KKEDGESTAPTPRPKVLRCYCSGHCPEDSVNNICSTDGYCFTMIEEDDSGLPVVTSGCLKLEGSDFQCRDTPIPHQRRSIECCTERNECNKDLHPTLPPVVIGPFFDGSIRTGGGGSGGGGSGGGGSGGGGSTHTCPPCPAPEAAGGPSVFLFPPKPKDTLMISRTPEVTCVVVDVSHEDPEVKFNWYVDGVEVHNAKTKPREEQYNSTYRVVSVLTVLHQDWLNGKEYKCKVSNKALPAPIEKTISKAKGQPREPQVYTLPPSREEMTKNQVSLTCLVKGFYPSDIAVEWESNGQPENNYKTTPPVLDSDGSFFLYSKLTVDKSRWQQGNVFSCSVMHEALHNHYTQKSLSLSPG
B1: no binding.
